The values below come from the supplement of paper PMC9112550, “Optimization of the antimicrobial peptide Bac7 by deep mutational scanning” (BMC Biology, 2022).

The test system of this data set is Escherichia coli TOP10. Briefly: shrunken log2 fold change of peptide-encoding DNA abundance (4.5 h post-induction vs induction); higher = less antimicrobial activity (less host growth inhibition). To be noted: time post-induction: 4.5 h; library: site-saturation at positions 5, 18, 19, 20.
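Further: peptides expressed intracellularly from a pBAD plasmid library in pooled LB shake-flask culture, induced with 0.3% L-arabinose, DNA abundance read by NGS, three biological replicates, DESeq2 with apeglm shrinkage.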

Turning to RRIRERPPRLPRPRPRPQMCPRP, the “shrunken log2 fold change” value stood at 0.0746.
Take RRIRRRPPRLPRPRPRPMYGPRP: the “shrunken log2 fold change” value was -0.0152.
Regarding RRIRSRPPRLPRPRPRPDMNPRP, the “shrunken log2 fold change” value was 0.0168.
As to RRIRLRPPRLPRPRPRPVYMPRP, the “shrunken log2 fold change” value was -0.283.
For RRIRDRPPRLPRPRPRPQPIPRP, the “shrunken log2 fold change” value stood at 0.152.
Turning to RRIRNRPPRLPRPRPRPNQMPRP, the “shrunken log2 fold change” value was -0.153.
As for RRIRIRPPRLPRPRPRPVEAPRP, the figure is -0.205; as for RRIRVRPPRLPRPRPRPPYEPRP, -0.0422; as for RRIRDRPPRLPRPRPRPVSHPRP, 0.00713.
To RRIRMRPPRLPRPRPRPGNLPRP belongs 0.0466; to RRIRLRPPRLPRPRPRPQWIPRP, -0.0288.
Regarding RRIRSRPPRLPRPRPRPWCAPRP, the “shrunken log2 fold change” value is 0.0451.
Regarding RRIRLRPPRLPRPRPRPHTAPRP, the “shrunken log2 fold change” value is -0.00187.
As to RRIRWRPPRLPRPRPRPRMCPRP, the “shrunken log2 fold change” value was 0.272.
Regarding RRIRNRPPRLPRPRPRPNVPPRP, the “shrunken log2 fold change” value is -0.128.
Take RRIRFRPPRLPRPRPRPAPCPRP: the “shrunken log2 fold change” value stood at 0.294.
RRIRTRPPRLPRPRPRPDVTPRP: the “shrunken log2 fold change” value is -0.06.
As to RRIRPRPPRLPRPRPRPFLTPRP, the “shrunken log2 fold change” value is -0.254.
For RRIRPRPPRLPRPRPRPVWEPRP, the “shrunken log2 fold change” value was -0.126.
In the case of RRIRFRPPRLPRPRPRPMIHPRP, the “shrunken log2 fold change” value is -0.0677.
RRIRVRPPRLPRPRPRPQNIPRP: the “shrunken log2 fold change” value is -0.504.
To RRIRWRPPRLPRPRPRPGTSPRP belongs 0.304; to RRIRRRPPRLPRPRPRPDGNPRP, 0.0694.
To RRIRWRPPRLPRPRPRPSDKPRP belongs -0.246; to RRIRDRPPRLPRPRPRPWRVPRP, 0.28.
For the sequence RRIRCRPPRLPRPRPRPKCEPRP, the “shrunken log2 fold change” value is 0.11.
Regarding RRIRVRPPRLPRPRPRPLSEPRP, the “shrunken log2 fold change” value worked out at 0.0246.
To RRIRGRPPRLPRPRPRPRILPRP belongs 0.404; to RRIRGRPPRLPRPRPRPVYWPRP, 1.38; to RRIRHRPPRLPRPRPRPMPGPRP, -0.0235.
Consider RRIRHRPPRLPRPRPRPFCSPRP, for which the “shrunken log2 fold change” value was -0.171.
Consider RRIRDRPPRLPRPRPRPNFKPRP, for which the “shrunken log2 fold change” value was -0.0287.
As for RRIRRRPPRLPRPRPRPFGWPRP, the figure is 0.271; as for RRIRLRPPRLPRPRPRPDLIPRP, -0.0276.
For RRIRERPPRLPRPRPRPQNFPRP, the “shrunken log2 fold change” value was -0.486.
In the case of RRIRPRPPRLPRPRPRPKHPPRP, the “shrunken log2 fold change” value came out at 0.995.
With RRIRIRPPRLPRPRPRPHPFPRP, the “shrunken log2 fold change” value was -0.583.
As for RRIRYRPPRLPRPRPRPYDTPRP, the “shrunken log2 fold change” value was -0.149.
RRIRCRPPRLPRPRPRPNCAPRP: the “shrunken log2 fold change” value is 0.00777.
In the case of RRIRSRPPRLPRPRPRPHEKPRP, the “shrunken log2 fold change” value was 0.0101.
Regarding RRIRFRPPRLPRPRPRPALDPRP, the “shrunken log2 fold change” value was determined as 0.436.
On to RRIRQRPPRLPRPRPRPSLHPRP, for which the “shrunken log2 fold change” value was -0.64.
As for RRIRRRPPRLPRPRPRPGLGPRP, the “shrunken log2 fold change” value is 0.55.
Consider RRIRHRPPRLPRPRPRPEDEPRP, for which the “shrunken log2 fold change” value amounted to 0.0969.
In the case of RRIRRRPPRLPRPRPRPTVTPRP, the “shrunken log2 fold change” value amounted to 0.144.
For RRIRSRPPRLPRPRPRPLGQPRP, the “shrunken log2 fold change” value was -0.0571.
Turning to RRIRQRPPRLPRPRPRPKQLPRP, the “shrunken log2 fold change” value is -0.156.
To RRIRWRPPRLPRPRPRPFSCPRP belongs -0.00231; to RRIRFRPPRLPRPRPRPMFGPRP, 0.312; to RRIRYRPPRLPRPRPRPPPPPRP, 1.2.
Consider RRIRLRPPRLPRPRPRPMLDPRP, for which the “shrunken log2 fold change” value came to 0.014.
As for RRIRFRPPRLPRPRPRPGPEPRP, the figure is 0.103.
In the case of RRIRYRPPRLPRPRPRPRKMPRP, the “shrunken log2 fold change” value is -0.178.
For RRIRIRPPRLPRPRPRPCCSPRP, the “shrunken log2 fold change” value is -1.1.
RRIRQRPPRLPRPRPRPQPGPRP: the “shrunken log2 fold change” value worked out at 0.0446.
As for RRIRLRPPRLPRPRPRPRFTPRP, the “shrunken log2 fold change” value turned out to be 0.0165.
Take RRIRPRPPRLPRPRPRPLCEPRP: the “shrunken log2 fold change” value turned out to be 0.0379.
RRIRPRPPRLPRPRPRPTLNPRP: the “shrunken log2 fold change” value amounted to 0.0863.
For the sequence RRIRFRPPRLPRPRPRPYLMPRP, the “shrunken log2 fold change” value was -0.687.
RRIRIRPPRLPRPRPRPGEPPRP: the “shrunken log2 fold change” value was -0.0228.
Take RRIRTRPPRLPRPRPRPVRPPRP: the “shrunken log2 fold change” value turned out to be 0.779.
Regarding RRIRERPPRLPRPRPRPGMLPRP, the “shrunken log2 fold change” value is -0.0705.
To RRIRWRPPRLPRPRPRPAFQPRP belongs 0.62.
For the sequence RRIRFRPPRLPRPRPRPMDLPRP, the “shrunken log2 fold change” value is -0.161.
Consider RRIRTRPPRLPRPRPRPKYVPRP, for which the “shrunken log2 fold change” value was found to be 0.0339.
As for RRIRSRPPRLPRPRPRPTCQPRP, the figure is 0.0682; as for RRIRTRPPRLPRPRPRPLRPPRP, 0.864; as for RRIRTRPPRLPRPRPRPFNWPRP, -0.22.
As for RRIRMRPPRLPRPRPRPKFMPRP, the “shrunken log2 fold change” value came to 0.0431.
On to RRIRIRPPRLPRPRPRPNWEPRP, for which the “shrunken log2 fold change” value came out at 0.00543.
Turning to RRIRVRPPRLPRPRPRPYDKPRP, the “shrunken log2 fold change” value is -1.05.
As for RRIRPRPPRLPRPRPRPRFGPRP, the “shrunken log2 fold change” value was 0.348.
Turning to RRIRLRPPRLPRPRPRPCVTPRP, the “shrunken log2 fold change” value was -0.498.
As for RRIRCRPPRLPRPRPRPCDEPRP, the figure is -0.0731; as for RRIRMRPPRLPRPRPRPHETPRP, -0.00213.
In the case of RRIRCRPPRLPRPRPRPMQSPRP, the “shrunken log2 fold change” value was -0.0765.
Consider RRIRFRPPRLPRPRPRPKEAPRP, for which the “shrunken log2 fold change” value stood at 0.084.
In the case of RRIRNRPPRLPRPRPRPIHIPRP, the “shrunken log2 fold change” value was -0.58.
Turning to RRIRSRPPRLPRPRPRPPTHPRP, the “shrunken log2 fold change” value stood at 0.197.
In the case of RRIRTRPPRLPRPRPRPWVWPRP, the “shrunken log2 fold change” value worked out at 0.166.
RRIRVRPPRLPRPRPRPLNDPRP: the “shrunken log2 fold change” value was 0.171.
As for RRIRQRPPRLPRPRPRPWGFPRP, the “shrunken log2 fold change” value was 0.0223.
For RRIRTRPPRLPRPRPRPHAPPRP, the “shrunken log2 fold change” value is -0.046.
With RRIRLRPPRLPRPRPRPDNNPRP, the “shrunken log2 fold change” value was -0.444.
With RRIRNRPPRLPRPRPRPYDQPRP, the “shrunken log2 fold change” value was -0.37.
RRIRLRPPRLPRPRPRPYTLPRP: the “shrunken log2 fold change” value was -0.143.
As for RRIRVRPPRLPRPRPRPTINPRP, the figure is -0.286; as for RRIRERPPRLPRPRPRPSPTPRP, 0.0865.
Consider RRIRARPPRLPRPRPRPCWIPRP, for which the “shrunken log2 fold change” value is -0.197.
Turning to RRIRARPPRLPRPRPRPKFFPRP, the “shrunken log2 fold change” value was determined as 0.305.
To RRIRGRPPRLPRPRPRPNGVPRP belongs -0.186; to RRIRERPPRLPRPRPRPCEPPRP, 0.123.
On to RRIRMRPPRLPRPRPRPPSTPRP, for which the “shrunken log2 fold change” value was determined as 0.97.
In the case of RRIRCRPPRLPRPRPRPYGEPRP, the “shrunken log2 fold change” value was -0.432.
RRIRHRPPRLPRPRPRPVLTPRP: the “shrunken log2 fold change” value is -0.107.
As for RRIRARPPRLPRPRPRPDEHPRP, the figure is 0.54; as for RRIRRRPPRLPRPRPRPQQMPRP, 0.12.
Turning to RRIRTRPPRLPRPRPRPRNWPRP, the “shrunken log2 fold change” value stood at 0.325.
As for RRIRKRPPRLPRPRPRPWNRPRP, the “shrunken log2 fold change” value was -0.078.
Consider RRIRIRPPRLPRPRPRPWPHPRP, for which the “shrunken log2 fold change” value is -0.394.
On to RRIRQRPPRLPRPRPRPWCEPRP, for which the “shrunken log2 fold change” value was -0.105.
As to RRIRSRPPRLPRPRPRPMITPRP, the “shrunken log2 fold change” value was -0.19.
Turning to RRIRDRPPRLPRPRPRPGPKPRP, the “shrunken log2 fold change” value is 0.386.
As for RRIRWRPPRLPRPRPRPVAFPRP, the figure is 0.313; as for RRIRDRPPRLPRPRPRPGAAPRP, 1.09.
As for RRIRYRPPRLPRPRPRPFQAPRP, the “shrunken log2 fold change” value is -0.464.
Consider RRIRNRPPRLPRPRPRPLFHPRP, for which the “shrunken log2 fold change” value was -0.595.
Turning to RRIRERPPRLPRPRPRPFCDPRP, the “shrunken log2 fold change” value worked out at 0.211.
As for RRIRNRPPRLPRPRPRPLLIPRP, the “shrunken log2 fold change” value stood at 0.589.
Take RRIRQRPPRLPRPRPRPSVTPRP: the “shrunken log2 fold change” value is -0.0462.
Regarding RRIRQRPPRLPRPRPRPEHDPRP, the “shrunken log2 fold change” value is -0.0684.
As for RRIRHRPPRLPRPRPRPHRFPRP, the figure is -0.162; as for RRIRWRPPRLPRPRPRPNMGPRP, -0.0382; as for RRIRERPPRLPRPRPRPDGWPRP, 0.0267.
As for RRIRMRPPRLPRPRPRPNFRPRP, the “shrunken log2 fold change” value was 0.0542.
To RRIRVRPPRLPRPRPRPMHIPRP belongs -0.231.
Consider RRIRERPPRLPRPRPRPWSLPRP, for which the “shrunken log2 fold change” value was -0.0112.
Turning to RRIRIRPPRLPRPRPRPDSPPRP, the “shrunken log2 fold change” value was -0.0466.
Turning to RRIRKRPPRLPRPRPRPRFMPRP, the “shrunken log2 fold change” value is 0.102.
As for RRIRNRPPRLPRPRPRPGFVPRP, the “shrunken log2 fold change” value came to 0.135.
Consider RRIRDRPPRLPRPRPRPGILPRP, for which the “shrunken log2 fold change” value was -0.197.
Turning to RRIRYRPPRLPRPRPRPMRCPRP, the “shrunken log2 fold change” value is -0.000627.
Regarding RRIRNRPPRLPRPRPRPEPSPRP, the “shrunken log2 fold change” value was determined as 0.145.
In the case of RRIRKRPPRLPRPRPRPCMWPRP, the “shrunken log2 fold change” value is -0.189.
On to RRIRGRPPRLPRPRPRPRWKPRP, for which the “shrunken log2 fold change” value stood at 0.0802.
